Test results: patent US20160130324A1

Target: rhC1s (human) (UniProt P09871)
Experiment: inhibition of C1s cleavage of a colorimetric peptide substrate, mean OD value; C is the midpoint of the 4-parameter fit

rhC1s (human), sequence (P09871 16-688 limits assumed): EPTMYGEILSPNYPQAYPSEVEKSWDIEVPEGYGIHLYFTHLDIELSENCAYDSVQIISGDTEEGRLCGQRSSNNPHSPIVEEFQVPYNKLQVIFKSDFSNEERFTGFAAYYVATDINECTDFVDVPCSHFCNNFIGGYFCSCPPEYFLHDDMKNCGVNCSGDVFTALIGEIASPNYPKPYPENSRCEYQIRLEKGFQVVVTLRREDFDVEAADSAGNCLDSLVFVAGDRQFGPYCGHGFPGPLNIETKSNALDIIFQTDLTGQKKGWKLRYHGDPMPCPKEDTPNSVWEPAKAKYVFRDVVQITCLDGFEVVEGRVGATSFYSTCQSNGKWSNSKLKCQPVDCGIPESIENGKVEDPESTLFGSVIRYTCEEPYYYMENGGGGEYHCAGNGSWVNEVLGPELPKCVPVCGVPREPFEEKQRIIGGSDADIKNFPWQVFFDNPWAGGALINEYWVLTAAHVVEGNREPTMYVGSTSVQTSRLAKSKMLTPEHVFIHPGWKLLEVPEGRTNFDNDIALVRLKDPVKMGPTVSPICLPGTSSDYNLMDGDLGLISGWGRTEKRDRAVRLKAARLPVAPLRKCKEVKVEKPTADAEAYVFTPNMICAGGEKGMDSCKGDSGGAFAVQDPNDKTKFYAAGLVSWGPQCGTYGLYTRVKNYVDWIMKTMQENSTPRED

**Q.** Which IC50 does the source give for HSA-C1-INH here?
**A.** 1.67 nM

**Q.** HSA_D3-C1-INH was tested. Which IC50 did it give?
**A.** 1.45 nM
